Assay: yeast display, Sf9 membrane polyspecificity reagent, FACS + sequencing; frameworks hold sequencing errors
Procedure, shortened: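 Galactose-induced (36–48 hours) yeast carrying a synthetic nanobody display library were exposed to 10% biotinylated, detergent-solubilized Sf9 membrane reagent at 4 °C for 1 hour. FACS followed streptavidin microbead enrichment, using low and high (top ~1%) gates for expression (anti-HA) and reagent binding (streptavidin). Colony PCR, MiSeq 2 × 250 sequencing and CDR-length filtering followed. Labels for polyreactivity reflect the gate of origin.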

| Sequence | polyreactivity (PSR sort gate) |
| --- | --- |
| QVQLLESGGGLVQAGGSLRLSCMASGSILGDRMSWYRQAPGKEHELVATIYDGGITCYADSMKGRFTISRDNAKNTVYLQMNSLRPEDTAVYYCGASFEGYRYHVYCGQGTQVTVSS | low polyreactivity |
| QVQLLESGGGLVQAGGSLRVSCAASGFTFSRNVMGWYRQAPGKERELVAAITSGSTYYADSVKGRFTISRDNAKNTVYLQMNRLKPEDTAVYYCAKRGRLRNYDYWGQGTQVTVSS | high polyreactivity |
| QVQLLESGGGLVQAGGSRRLSCASSGITFAFYAMGWYRQAPGKESELVAAISWSGTRTYYADSVKGRFTISRDNAKNTVYLQMNRLKPEDTAVYYCAAVYQAGDKLYDYWGQGTQVTVSS | low polyreactivity |
| QVQLLESGGGLVQARGSLRLSCAASARTIFKNAMAWYRQAPGKERELVARISWNGGDSTYYADSVTGRFTISRDNAKNTVYLQMNSLKPEDTAVYSCAADTSYRPGGSRQGYGYWGQGTQVTVSS | low polyreactivity |
| QVQLLESGGGLVQPGGSLRLSCAASGSTFDSYVKGWYRKAPGKERELVAANSSDDSTYYADSVKGRFTISRDNAKNTVYLQMISLKPEDTAVYYCAATNFRDYYCSWNYYYWGQGTQVTVSS | low polyreactivity |
| QVQLLESGGGLVQPGGSLRLSCAASGSTFIGYAMGWYRQAPGKETELVAAISWSGGRTYYADSVKGRFTISRDNAKNTVYLQMNSLKAEDTAVYYCNTVPYRISVQFNYWGQGTQVTVSS | high polyreactivity |
| QVQLLESGGGLVQPGGSLRLSCAASGSTFYDYAMGWYRTAPGKEREFVADIYSNGGSTYYAHSVKGRFTISRDNANYTVYLQMNSLKPEDTAVYYCASVLRPRQGRRYDYWGQGTQVTVSS | low polyreactivity |
| QVQLLESGGMVQAGGLRLSCAASGSVSYQEAMGWYRQAPGKERELVATISFGANTNYADSVKGRFTISRDNAKNTVYLQMNSLKPEDTAVYYCAAESLFYDYYGYWGQGTQVNVSS | low polyreactivity |
| QVQLLESGGRLVQAGGSLRLSCAASGSTYNQYDMGWYRQAPGKERELVAAISTNGGRTYYADSVKGRFTISRDNAKNTVYLLMNSLKPEYTAVYYCNRAGRGRWSNMDHWGQGTQVTVSS | high polyreactivity |
| QVQLLESGRGLVQEGGSLRLSCAASGFTFTAYAMGWYRQAPGKERELVAVISVRGGRTRYADSVKGRFTLSRDNAKNTVYLQMNSLKPEDTAVYYCDARYRPYSGSPQYDYWGQGTQVTVSS | high polyreactivity |
| QVQLLESGVCLVQAGGSLRLSCAASGFTFGVYAMGWYRQAPGKERELVAAISTTVGSTYYADSVKGRFTISRDNAKKTVYLQMNSLKPEDTAVYYCAAEYTGYINYYIYEYWGQGTQVTVSS | low polyreactivity |
| QVQLLESRGGLVQAGGSLRLSCPASGITFSRCAMGWYRQAPGKERELVAAITSGGRTNYADSVKGRFTISRDNATNTVYLQMISLKPEDTAVYYCAASYYYLSWRMDYWGQGTQVTVSS | high polyreactivity |
| QVQLLESWGGLVQAGGSLRLSCAASGLIFYRNAMGWYRQAHGKERELVAAISVSGGSTYYADSVKGRFTISRDNAKNTVYLQMNRLKPEDTAVYYCAAKTWRSRGKEMDYWGQGTQVNVSS | high polyreactivity |
| QVQLLETGGGLVQAGASLRLSCAASGSTFEDNAMGWYRQAPGKERELVAAITSGGNTYYADSVKGRFTIARDNAKNTVYLPMNSLKPEDTAVYYCNAVPFYYVFDYWGQGTQVTVSS | low polyreactivity |
| QVQLLETGGGLVQAGGSLRLSCAASGSILRWYVRGWYRQAPGKERELVADIDSGGSTNYADSVKGRFTISRDNAKNTVFLQMNSLKPEDTAVYYCASDVPSRSRYGVYRRDGMDYWGQGTQVTVSS | low polyreactivity |
| QVQLLETGGGLVQAGGSLRLSCAPSGGIFGFNAMGWYRQAPGKERELVADISDGVRTNYADSVKGLFTISRDNAKTTVYLQMNRLKPEDTAVYYCATDGLFYVDGSWTLGYWGQGTQVTVSS | low polyreactivity |
| QVQLLETVGGLVQAGGSLRLSCASSGFTFGYYTMGWYRQAPGKERELVAAISSSGGRTYYADSVKGRFTISRDIAKNTVYLQMISLKPEDTALYYCNVYYISTDLYYWGQGTQVTVSS | high polyreactivity |
